In patent EP4714972A1:
Values belong to the binder of their own block, whether it stands above or below them.

What was measured:
[1] = biological target: CD38 antigen (human-derived CD38 antigen protein) (human) (UniProt P28907); test: phage ELISA on coated CD38 antigen; control well (PVA) OD 0.18
[2] = biological target: CD38 antigen (human-derived CD38 antigen protein) (human) (UniProt P28907); test: phage ELISA on coated CD38 antigen; control well (PVA) OD 0.05
[3] = biological target: CD38 antigen (human-derived CD38 antigen protein) (human) (UniProt P28907); test: phage ELISA on coated CD38 antigen; control well (PVA) OD 0.04
[4] = biological target: CD38 antigen (human-derived CD38 antigen protein) (human) (UniProt P28907); test: phage ELISA on coated CD38 antigen; control well (PVA) OD 0.13

OD value of the antigen well (Pro) [1]: 0.65 OD
B1: B1 alpaca antibody (anti-CD38 single-domain antibody) (VHH)
VHH: QVQLVESGGGEVQPGGSLRLSCTASGFRLDYYAIGWFRRAPGKEREGIACIDITGIHTNYGDSVMGRFTISRDDRAVYLQMNNLEAGDTAIYYCAPARFSACSALDVKLSFTSWGQGTQVTVSS

OD value of the antigen well (Pro) [2]: 0.15 OD
B2: B3 alpaca antibody (anti-CD38 single-domain antibody) (VHH)
VHH: QVQLVESGGGLVQAGGSLRLACTASGNIFASQVMNWYRQAPGSPRELVATITPGGRTTYADSAKGRFTVATDNAKATAYLQLTSLTPEDTGVYYCHVRLFPATDYWGQGTQVTVSS

OD value of the antigen well (Pro) [1]: 1.07 OD
B3: B2 alpaca antibody (anti-CD38 single-domain antibody) (VHH)
VHH: QVQLVESGGGLVQPGGSLTLSCRASGFTLDYYAIGWFRQAPGKEREAIACIDITGFHTNYGDSVSGRFTISRDNAGTTVYLQMNSLEAEDTGIYYCAPARYAACSALDVKLSFTSWGQGTQVTVSS

OD value of the antigen well (Pro) [3]: 1.77 OD
B4: B8 alpaca antibody (anti-CD38 single-domain antibody) (VHH)
VHH: QVQLVESGGGLVQPGGSLRLSCTASGFRLDYYAIGWFRQAPGKEREAIACIDITGFHTNYGDSVSGRFTISRDNAGTTVYLQMNSLEAEDTGIYYCAPARYAACSALDVKLSFTSWGQGTQVTVSS

OD value of the antigen well (Pro) [4]: 0.89 OD
B5: B5 alpaca antibody (anti-CD38 single-domain antibody) (VHH)
VHH: QVQLVESGGGLVQPGGSLRLSCTASGFRLDYYAIGWFRQAPGKEREAISCIDITGMHTNYGDSVMGRFTISRDDAKRTVYLQMNSLEAEDTGIYYCAPAQYAACSALGVKVSFTSWGQGTQVTVSP
